Test results as given in article PMC5744401.

Legend:
Details in all cases: EMSA: 0.3 nM DIG-labeled probe; buffer, salt, pH and temperature as in Zhu et al. 2016 (not given)
[1] = target: T1, His6-AvaR1 (Streptomyces avermitilis) (UniProt Q82H41); experiment: competition EMSA
T1 sequence: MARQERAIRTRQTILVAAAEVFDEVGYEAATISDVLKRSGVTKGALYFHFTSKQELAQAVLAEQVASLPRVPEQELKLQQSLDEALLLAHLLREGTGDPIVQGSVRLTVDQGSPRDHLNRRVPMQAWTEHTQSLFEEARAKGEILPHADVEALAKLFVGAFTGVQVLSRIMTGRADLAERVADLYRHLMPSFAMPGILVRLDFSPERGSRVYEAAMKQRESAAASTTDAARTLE

[2] = target: T1, His6-AvaR1 (Streptomyces avermitilis); experiment: EMSA
[3] = target: T2, His6-AvaR2 (Streptomyces avermitilis) (UniProt Q82H44); experiment: EMSA
T2 sequence: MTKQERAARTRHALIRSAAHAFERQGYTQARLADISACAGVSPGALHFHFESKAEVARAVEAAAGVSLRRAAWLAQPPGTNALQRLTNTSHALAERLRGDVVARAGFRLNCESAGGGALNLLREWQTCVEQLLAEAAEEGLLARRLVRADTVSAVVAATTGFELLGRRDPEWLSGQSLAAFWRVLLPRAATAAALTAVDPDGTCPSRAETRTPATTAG

[4] = target: T1, His6-AvaR1 (Streptomyces avermitilis); experiment: DNase I footprinting
[5] = target: T3, GST-AvaR2 (Streptomyces avermitilis) (UniProt Q82H44); experiment: EMSA
T3 sequence: T2 sequence

[6] = target: T4, His6-AvaR1;GST-AvaR2 (Streptomyces avermitilis;Streptomyces avermitilis) (UniProt Q82H41+Q82H44); experiment: EMSA
T4 sequence 1: T1 sequence
T4 sequence 2: T2 sequence

[7] = test system: His6-AvaR1 (Streptomyces avermitilis); experiment: competition EMSA

| Substance | binding [2] | other results |
| --- | --- | --- |
| ACTGATGCGCGAGAAAACCGCACAAGCGGTTTGTTAAAGTTGCTGGACCCCCATCAGCAACGGAGCGCCCGATGGTCAAGCAGGTCAGACAGGAACGCGCGATCCGCACGCGCAACGCCTTGATCGAGTCC (double strand) [avaR3p] | binds | binding signal (affinity rank of 5 (1 = strongest)) [1]: 1 |
| ATCCACGCTTCTCGCTCCGCCCAGTGTACGGCGCCGCGCGGACAGCGGCCGACCGGTTTTCCGGGGCCCGCGCGGAAGGCGGCAGGGGGGCCGGTACGGGCCGCGGACTGACCCGAATGGCGA (double strand) [ileSp] | no binding |  |
| CCCTCGACCGGATTGTGGGAGCATCGTGCCATTCCAAGTGGCCGCTATGTGACCGAGTGCCCCCGATCGGCCCCAGATGGCGGGTTAAGGCTAATTAAGGAAACCCCCTGACGCCCCCTGACGGGGTCTGCTCACCCGCACGGCATGATGGCCCCCATGCGTGCGGTGGTGCAGAGGGTGGACGGCGCGAGCGTCGTCGTGGAAGGCGAGAACGGGCCGGAGACGGTCGGTGAGATCAACGGCGAGG (double strand) [amfCp] | binds |  |
| CCGCTGGAGTCTGAGAAGCCATGGAAGCATTCACCACGCACACCGGCCGGGCCGTCCCGCTGCGCCGCAGCAACGTCGACACCGACCAGATCATCCCCGCCCACTGGCTCAAGAAGGTCACCAGGGACGGTTTCGAGGACGGGCTGTTCGAGGCCTGGCGCAAGGACGAGTCCTTCATCCTCAACCG (double strand) [leuDp] | binds |  |
| CTCGGGCGTGATCCGACTGCGGCGCACCGTTGCGGTCTCAGTCATCGCACTCGCCTCTCCTGCTTCGAACGACACGGTTTCCGGTTGCGTACGTCTACCCGTACGTCTTCCTCGTACCTTCCTGAAGATACCCCGAGAGCGAGCGAAACGAAACCGTTTCGTACGTGTCGTGGGTCACGCACATGTTTTCACAAGTTGCCGGGGCCCGTCGCGCGGAAAAGCATGGGTTAGGTGAACCCCGAGTCCGA (double strand) [aveTp] | binds | binding [3]: binds |
| GAACTGGGTGACGAGGAGCTTCTCGCGAAGCTTCGCGAAGCCAAGGAAGAGCTGTTCAACCTCCGCTTCCAGGCGGCGACCGGTCAGCTCGAGAACCACGGTCGGCTCAAGGCCGTCCGCAAGGACATCGCGCGGATCTACACCCTGATGCGTGAGCGCGAGCTGGGCATCGAGACGGTGGAGAGCGCCTGATGAGCGAGAGCAACGTGACTGAGACCAACGAGCAGCGCGGTTTCCGCAAGACCCGTGAGGGTCTGGTCGTCAGCGACAAGATGGACAA (double strand) [rpsQp] | binds |  |
| GAGCTTCTCCCTGGCTTGGGACGGGCTGACGTGAACCACGGGACCCGAGAAGGGCTGAGGAAGGGCTGGAGAGCTGCGGAAGAGCTGCGGAGGAGCTGCGGAAGAGCTGCGGAAGAGCTGGAGGTCAAAGATACGTACTAGACGGTTTTGTCTTCAAGTCCCTCTTGCGGTCAAGGGTCATCCCTTACAAGGGAGTTGGGGGTGAGATATGTGTTTTTGAGTGGTTTGTGAGAGGGCG (double strand) [acop] | binds | binding signal (affinity rank of 5 (1 = strongest)) [1]: 4 |
| GCCACACGCACCCTCCGCACCAGCCCGACCAGCGGGACACCGTCCCGACCAGTGGGACACCGTCCGGATCGCGGGACACCGTCCCGACCAGCGGGAAAAGACCAAGCGGTTCGCACCCTAACAGCGACGATCCTCCACTCCACCGCCGAAGACAGGCCCGGTCCTGACCGGGACGATAAAACCAGCTGAACGGTTTTTCAATGCTCCCCTCGCCCTCTCACAAACCACTCAAAAACACATATCTCACCCCCAACTCCC (double strand) [avaR1 footprint probe] |  | binding [4]: binds |
| GCCACACGCACCCTCCGCACCAGCCCGACCAGCGGGACACCGTCCCGACCAGTGGGACACCGTCCGGATCGCGGGACACCGTCCCGACCAGCGGGAAAAGACCAAGCGGTTCGCACCCTAACAGCGACGATCCTCCACTCCACCGCCGAAGACAGGCCCGGTCCTGACCGGGACGATAAAACCAGCTGAACGGTTTTTCAATGCTCCCCTCGCCCTCTCACAAACCACTCAAAAACACATATCTCACCCCCAACTCCC (double strand) [avaR1p] | binds | binding signal (affinity rank of 5 (1 = strongest)) [1]: 5 |
| GCCCTCGTCCCAGTAGAAGACGGGTCGCCGGGTTCCTGGGCCCGTGGCCCGCATGCGCAGCTCGACCTGGGTGATCACCTCGGTCTGCGTGGTCTCGACTCATGACCGCGCCGGTCAGCGCCTCCACAAGTCGTCCAAGTTTCAGCCGGTGGCAGACATTCCGTGA (double strand) [wbpAp] | no binding |  |
| GCGGAAGGCGGCTGACCAGAGGGCCCTGCAAGAAACCAGCATAGCGGTTTGTTTGTGGCGCCCGTCACCACTTCGCCGACGCGGTACCCCCGGAGGCCAGGCACCGGTCACTGCCGCCGCCCGCGCTGCCCGCTGCCGCCGCCGAGCCGTACCGCGCGGCTCGGGCGTCGCGCATGCCGTCAGGCCCCCGGCACCTCCCTG (double strand) [avaR2p] | binds | binding signal (affinity rank of 5 (1 = strongest)) [1]: 2 |
| GCTCTTCGTGCTCACCGTCTTCGTCGCGTACGCGTACGTATGGCGGCGCGGCGGTCTGGAATGGGACTGAGGGGCCTTTAACGACATGGGACTCGAAGAAAAGCTGCCGAGCGGATTCCTGCTGACGAC (double strand) [nuoB1p] | binds |  |
| GGGTAGTGTCAAGGTCGCTGACTTTGATGATTAACTGATGATCGTGGGATTCTGAGGTGGTGTTCGCGAGGGTGAAGGAGTTCCTTCCTGGAGACATCCGTGCCCCGGATGGCGGTCCACAATTCACGAGTGGGATGCGCAGTGGGTCGCGTGCTGCAACACCGAATGGAATACCGGGTGACCGGTATGTATGGC (double strand) [aveRp2] | binds | binding [5]: binds; binding [6]: binds |
| GTGCTGCAACACCGAATGGAATACCGGGTGACCGGTATGTATGGCGGTGCGGTGACCGCGGAAACGGCTCGGGCGGATTGACCGCCCGAGCCGGAGGAGAAGGCCATCGCCGCACCCGCGAGCAAGGGTCCAGAGGGACGGCGGCGCGAAGGCGGCCTGGCCTATGGGGAGTTCGGAGGACCAGGCGTCA (double strand) [aveRp] | binds | binding signal (affinity rank of 5 (1 = strongest)) [1]: 3 |
| TCAACCACCGTCATGTAGGGCGTACGCCCTTGCTGTACGGACCCGGTGTGTTGACGCCCGGTGCCGCGAGCGCACCCCCGCCCGCTCACGGCACCGGACTTCTCGGTGTTCCGGATGACGTCGTGCAGACGCGTGACAACTGCGCCAGTGCTGGTGCTGTGCAGCGTGTTCATCTCGCGCCCCCCGTCGTGGAGTCCGGTATCCCTGCGGTCTTGCCCTGCTGTCCTGCGGTGGTGCTGCCTTGCTTGTGTCGAAAAGCTTGCC (double strand) [probe 1] | no binding |  |
| TGCGGTGACCCCCATCTCGATCAGTTCGGTGGGGTGAAACCGCGTGAGCCGGTTGTCGTCCAGGCTCTGGGGCCCGGTGTCCGCGAGGGCGGGGAACGCCCTGAGGGAGGGGTAGGCATAAGGAAGGTACTCGGCGAGGCCGCTGCTGTGGTTGATCAACATCCGGACCGTGATCGCGTCACCGCGTTCTCCGGGAACCAGCCTCGGAAGGTACCGGCCGATCGGAGTGTCAAGACCGATCAGGTCACCGACGAGGAGTGCAACGC (double strand) [2051p] | no binding |  |
| TTCAACTGACCGTCCCGCACGTAGAGTTCTGGAGTCACCCGCACATGACCGTACGCAAGAACCAGGCGACCCTGACGGCCGACGAGAAGCGGCGCTTCGTCGACGCGCTCGTGGCGCTCAAGCGCAGTGGCCGCTACGACGAGTTCGTCACGACCCACAACGCCTTCATCATGGGCGACACCGACAGCGGCGAACGCACGGGCCATCGTTCGCCTTCCT (double strand) [melC2p] | no binding |  |
| TTGTGCCCTGTGTGTGCGCCATGGGCATACCGTCCGGGCGGAATGCCGGGTTCCGGCATCGAACGTCGTGCGATTCGGCAGTTCGAGCGATACCGGATGGTTTCGCTTCTGTTCGATTGCGGGGTGTGGTGTAGGCCAGTACGCGAAACTCGCCGGAAAAGGGGCACCCGCCGCCCGTAGGCTGGGAGGCAT (double strand) [3560p] | binds |  |
| avaR1p |  | binding signal (affinity rank of 5 (1 = strongest)) [7]: 5 |
| avaR2p |  | binding signal (affinity rank of 5 (1 = strongest)) [7]: 2 |
| avaR3p |  | binding signal (affinity rank of 5 (1 = strongest)) [7]: 1 |
| aveRp |  | binding signal (affinity rank of 5 (1 = strongest)) [7]: 3 |
